Target: His/S-tagged OCRL1, full length, recombinant (human, UniProt Q01968 1-901)
Test: pull-down

binding result: binds
B1: GST APPL1 (aa 403-413), minimal OCRL1 binding domain of APPL1 (peptide)
chain: SFQQRHESLRP
